From FireProtDB (doi:10.1006/jmbi.1997.1365)

Details: Homo sapiens, pH 2.7, Thermal, DSC, glycine 0.05 M, reversible: yes, whole UniProt chain shown

B1: Lysozyme C wild type, P61626 (protein)
chain: MKALIVLGLVLLSVTVQGKVFERCELARTLKRLGMDGYRGISLANWMCLAKWESGYNTRATNYNAGDRSTDYGIFQINSRYWCNDGKTPGAVNACHLSCSALLQDNIADAVACAKRVVRDPQGIRAWVAWRNRCQNRDVRQYVQGCGV
- heat capacity change of unfolding (64.9 °C): 1.58 kcal/mol/K
- unfolding enthalpy (calorimetric) (64.9 °C): 114 kcal/mol
- unfolding enthalpy (van 't Hoff) (64.9 °C): 120 kcal/mol
- Tm: 64.9 °C
- heat capacity change of unfolding: 1.58 kcal/mol/K
